These results are taken from PMC8324831 (2021).

Test [1] addresses T1, SARS-CoV-2 S-RBD with Avi-tag and deca-His tag (residues 330-531) (SARS-CoV-2, UniProt P0DTC2 330-531). Briefly: BLI.
For test [2], the target named is T1, SARS-CoV-2 S-RBD with Avi-tag and …. As to the kind of experiment: BLI. The source holds these as a separate data set.

B1: sybody MR4 (VHH)
VHH: QVQLVESGGGLVQAGGSLRLSCAASGFPMYAWEMAWYRQAPGKEREWVAAIRSMGVHTHYSDSVKGRFTISRDNAKNTVYLQMNSLKPEDTAVYYCNVKDFGGHQAYYDYWGQGTQVTVS
As for B1, the koff in test [1] was found to be 0.0064 s⁻¹. Binding in test [2] was put at a Kd of 23.3 nM.

B2: sybody MR17 (VHH)
VHH: QVQLVESGGGLVQAGGSLRLSCAASGFPVEVWRMEWYRQAPGKEREGVAAIESYGHGTRYADSVKGRFTISRDNAKNTVYLQMNSLKPEDTAVYYCNVKDDGQLAYHYDYWGQGTQVTVS
modifications: biotin by an amine-reactive crosslinker (only where immobilised on the SA sensor)
As to B2, in test [1], the koff is 0.0097 s⁻¹.

B3: sybody SR4 (VHH)
VHH: QVQLVESGGGLVQAGGSLRLSCAASGFPVYSWNMWWYRQAPGKEREWVAAIESHGDSTRYADSVKGRFTISRDNAKNTVYLQMNSLKPEDTAVYYCYVWVGHTYYGQGTQVTVS
modifications: biotin by an amine-reactive crosslinker (only where immobilised on the SA sensor)
In test [1], B3 returned a koff of 0.0014 s⁻¹. Besides, in test [2], the Kd came out at 14.5 nM.

B4: sybody LR1 (VHH)
VHH: QVQLVESGGGSVQAGGSLRLSCAASGSISSITYLGWFRQAPGKEREGVAALITDSGRTYYADSVKGRFTVSLDNAKNTVYLQMNSLKPEDTALYYCAAAEWGYEWPLYYASSWYWGQGTQVTVS
In turn, B4 showed a koff in test [1] of 0.0096 s⁻¹. This molecule also returned a Kd in test [2] of 47.5 nM.

B5: sybody LR5 (VHH)
VHH: QVQLVESGGGSVQAGGSLRLSCAASGSISSITYLGWFRQAPGKEREGVAALITSNGRTYYADSVKGRFTVSLDNAKNTVYLQMNSLKPEDTALYYCAAATWGYHWPLGAWDYWYWGQGTQVTVS
Regarding B5, the koff in test [1] was 0.0032 s⁻¹. The molecule also came in with a Kd in test [2] of 22.8 nM.
